{
  "source": "patent US20130011909A1",
  "about": "“METHODS AND COMPOSITION TO ENHANCE PRODUCTION OF FULLY FUNCTIONAL P-GLYCOPROTEIN IN PICHIA PASTORIS” (TEXAS TECH UNIVERSITY SYSTEM, priority 2011, published 2013)",
  "key": {"[1]": {"biological_target": "gene-optimized P-glycoprotein (mouse opti-MDR3 gene product) with C-terminal His6-tag (mouse) (UniProt P21447)", "experiment": "cell-based or functional assay"}, "[2]": {"biological_target": "wild-type P-glycoprotein (mouse MDR3 gene product) with C-terminal His6-tag (mouse) (UniProt P21447)", "experiment": "cell-based or functional assay"}, "[3]": {"experiment": "Differential scanning calorimetry, thermal unfolding", "format": "physicochemical", "protocol": "Calorimetry was routinely carried out in 20 mM HEPES, pH 7.6, 50 mM NaCl, 10% glycerol, 0.1% DDM and 5.5 mM DTT in 0.13 mL cells at a heating rate of 2 K/minutes with the VP-Capillary DSC System (MicroCal Inc., GE Healthcare). An external pressure of 2.0 atm was maintained to prevent possible degassing of the solutions on heating. Thermal unfolding was irreversible, as determined by sample cooling and reheating. Heat capacity curves were corrected for instrumental baseline obtained by buffer scans. Separated DSC scans were conducted for buffer containing 1% lipids and no transition was detected in the temperature range of thermal unfolding for the proteins in presence of lipids. DSC data were analyzed with the MicroCal Origin software to obtain the unfolding temperature (Tm) and the total unfolding enthalpy (ΔHcal)."}, "[4]": {"tested_on": "S. cerevisiae strain JPY201", "experiment": "Drug-resistant growth of Pgp transformants (FK506, valinomycin, doxorubicin)", "format": "cell-based", "protocol": "(§1) FK506 resistance and mating assays were as previously described with the following modifications. To measure FK506-resistant growth, overnight cultures were grown in uracil-deficient medium, diluted to an (OD600 of 0.05, seeded into sterile 96 well plates in triplicate and grown in YPD medium at 30° C. in the absence or presence of FK506, valinomycin [12, 33], or doxorubicin. OD600 was measured at 2 hour intervals for 30 hours in a microplate reader (Benchmark Plus, BioRad) after vigorous mixing. Drugs were dissolved in dimethylsulfoxide and diluted into the plate medium such that the final concentration of solvent was ≦1%. For mating assays, mass populations were diluted to OD600 of 0.6, and 0.75 ml were spotted with 0.25 ml of α-type tester strain DC17 (OD600 of 1.2) onto a 22 mm 0.45 μm HA filter (Millipore, cat no SAIJ791H5), placed on a YPD plate and incubated for 4 hours, then plated in duplicate on minimal and uracil-deficient medium as described. Mating frequency was calculated as the ratio of transformed cells forming diploid colonies on selective medium to the total number of cells introduced in the assay. Statistical analysis of the functional assays was done with the SigmaPlot 11 software using One Way ANOV A with the pairwise multiple comparison Tukey test."}, "[5]": {"biological_target": "T1, Opti-Pgp (Mus musculus, UniProt P21447, N83Q/N87Q/N90Q)", "T1 construct": "made in house; host or cells: Pichia pastoris KM71H", "T1 sequence (P21447 whole entry N83Q/N87Q/N90Q)": "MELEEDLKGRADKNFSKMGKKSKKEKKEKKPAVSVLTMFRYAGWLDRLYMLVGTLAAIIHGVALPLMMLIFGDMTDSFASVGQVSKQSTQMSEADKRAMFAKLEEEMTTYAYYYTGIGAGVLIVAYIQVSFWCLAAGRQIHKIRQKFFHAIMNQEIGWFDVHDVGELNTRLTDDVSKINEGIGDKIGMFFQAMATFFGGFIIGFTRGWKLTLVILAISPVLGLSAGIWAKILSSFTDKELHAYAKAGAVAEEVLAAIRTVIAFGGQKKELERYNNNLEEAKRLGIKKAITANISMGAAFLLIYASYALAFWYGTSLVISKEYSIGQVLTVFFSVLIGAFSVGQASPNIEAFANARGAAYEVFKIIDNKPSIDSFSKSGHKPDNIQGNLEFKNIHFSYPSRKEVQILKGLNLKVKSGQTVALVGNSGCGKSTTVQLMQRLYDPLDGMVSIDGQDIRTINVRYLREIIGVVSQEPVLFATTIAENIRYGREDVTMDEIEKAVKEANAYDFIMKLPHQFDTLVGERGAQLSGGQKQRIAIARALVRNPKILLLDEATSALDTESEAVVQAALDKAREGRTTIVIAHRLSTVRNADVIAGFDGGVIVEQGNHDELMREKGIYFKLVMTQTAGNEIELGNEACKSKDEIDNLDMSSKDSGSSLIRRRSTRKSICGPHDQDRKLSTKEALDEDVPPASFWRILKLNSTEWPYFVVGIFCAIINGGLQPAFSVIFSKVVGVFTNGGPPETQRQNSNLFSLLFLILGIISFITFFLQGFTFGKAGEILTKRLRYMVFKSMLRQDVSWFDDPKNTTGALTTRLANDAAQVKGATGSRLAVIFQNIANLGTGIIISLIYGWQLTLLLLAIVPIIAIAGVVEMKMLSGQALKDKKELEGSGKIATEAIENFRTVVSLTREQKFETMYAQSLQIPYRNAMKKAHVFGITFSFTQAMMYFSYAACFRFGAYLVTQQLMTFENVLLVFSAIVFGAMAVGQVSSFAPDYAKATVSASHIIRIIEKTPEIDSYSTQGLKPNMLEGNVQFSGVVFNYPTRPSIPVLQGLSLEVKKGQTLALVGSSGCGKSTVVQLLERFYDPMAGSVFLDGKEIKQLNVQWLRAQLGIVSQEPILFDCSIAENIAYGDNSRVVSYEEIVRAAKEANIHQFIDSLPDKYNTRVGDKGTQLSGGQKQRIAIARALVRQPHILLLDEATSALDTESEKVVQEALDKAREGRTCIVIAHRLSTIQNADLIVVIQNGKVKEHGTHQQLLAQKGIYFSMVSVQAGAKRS", "experiment": "ATPase assay of purified, lipid-activated Pgp (coupled ATP-regenerating assay)", "format": "biochemical", "protocol": "(§2) Purified Pgp in 0.1% DDM was mixed with 10 mM DTT on ice for 5 min, then activated with 1% E. coli polar lipids for 15 minutes at room temperature followed by 30 s bath sonication as described. ATPase activity was measured at 37° C. in a coupled assay utilizing an ATP-regenerating system. For each well of a 96-well plate, 10 μl (5 μg) of activated wild type (WT) Pgp or Opti-Pgp was added to 200 μl of assay medium containing 10 mM ATP, 12 mM MgSO4, 3 mM phosphoenolpyruvate, 0.3 mM NADH, 0.5 mg/ml of lactate dehydrogenase, 0.5 mg/ml of pyruvate kinase, 0.1 mM EGTA and 40 mM Tris-HCl, pH 7.4. Verapamil was added from stock solution in water; cyclosporine A was added from concentrated stock in DMSO such that the final DMSO concentration was 2%; control samples contained 2% DMSO. […] ATPase activity was calculated as described previously and plotted with SigmaPlot 10 (Systat Software, Inc.)."}, "[6]": {"tested_on": "S. cerevisiae strain JPY201", "experiment": "Mating assay (a-factor export, diploid formation)", "format": "cell-based", "conditions": "sterile ste6Δ strain JPY201, tester DC17", "protocol": "as §1"}, "[7]": {"biological_target": "T2, WT-Pgp (Mus musculus, UniProt P21447, N83Q/N87Q/N90Q)", "T2 construct": "Arrows indicate the position of the full-length proteins (Pgp); made in house; host or cells: Pichia pastoris KM71H", "T2 sequence (P21447 whole entry N83Q/N87Q/N90Q)": "as above", "experiment": "ATPase assay of purified, lipid-activated Pgp (coupled ATP-regenerating assay)", "format": "biochemical", "conditions": "150 μM verapamil, 1% E. coli lipids, 37° C., n > 30", "protocol": "as §2"}},
  "data": [
    {"substance": "cyclosporine A (peptide)", "values": [
      {"measurement": "Half-maximal inhibition by cyclosporine A (µM) of verapamil-stimulated ATPase activity", "setting": "[1]", "result": 1.1, "unit": "µM"},
      {"measurement": "Half-maximal inhibition by cyclosporine A (µM) of verapamil-stimulated ATPase activity", "setting": "[2]", "result": 0.98, "unit": "µM"}
    ]},
    {"substance": "Opti-Pgp: P-glycoprotein (mouse MDR3) expressed from codon-optimized opti-MDR3 gene, primary sequence identical to wild-type, C-terminal His6 tag", "values": [
      {"measurement": "Tm (intermediate)", "setting": "[3]; 0.13% lipid", "result": 48, "unit": "°C"},
      {"measurement": "Unfolding temperature T1", "setting": "[3]; 1% lipid", "result": "49.3 ± 1.0", "unit": "°C"},
      {"measurement": "Unfolding temperature T2", "setting": "[3]; 1% lipid", "result": "58.7 ± 0.5", "unit": "°C"},
      {"measurement": "ΔHcal", "setting": "[3]; 1% lipid", "result": "567 ± 33", "unit": "kcal/mol"},
      {"measurement": "Unfolding temperature T1", "setting": "[3]; no added lipids, 0.1% DDM", "result": "42.7 ± 1.7", "unit": "°C"},
      {"measurement": "ΔHcal", "setting": "[3]; no added lipids, 0.1% DDM", "result": "264 ± 67", "unit": "kcal/mol"},
      {"measurement": "Growth resistance compared with WT-Pgp transformants", "setting": "[4]; FK506 25 μg/ml", "result": "no difference"},
      {"measurement": "Growth resistance compared with WT-Pgp transformants", "setting": "[4]; FK506 50 or 75 μg/ml", "result": "grew significantly faster"},
      {"measurement": "Growth resistance compared with WT-Pgp transformants", "setting": "[4]; doxorubicin 45 μM", "result": "grew significantly faster"},
      {"measurement": "Growth resistance compared with WT-Pgp transformants", "setting": "[4]; doxorubicin 15 and 30 μM", "result": "no significant difference"},
      {"measurement": "Time after inoculation to enter log-phase growth", "setting": "[4]; in the presence of FK506", "result": "approximately 22 hours"},
      {"measurement": "Time to reach stationary phase", "setting": "[4]; in the presence of FK506", "result": "approximately 28 hours"},
      {"measurement": "Growth compared with WT-Pgp transformants", "setting": "[4]; valinomycin 80 μg/ml, data not shown", "result": "as good as or better than"},
      {"measurement": "verapamil-stimulated ATPase activity", "setting": "[5]; 0.13% lipid", "result": 40, "unit": "%"},
      {"measurement": "verapamil-stimulated ATPase activity", "setting": "[5]; 0.52% lipid", "result": 80, "unit": "%"},
      {"measurement": "ATP hydrolysis rate enhancement over wild-type Pgp", "setting": "[5]; Opti-Pgp versus WT-Pgp", "result": 1.2, "unit": "fold"},
      {"measurement": "verapamil-stimulated ATPase activity", "setting": "[5]; absence of lipids", "result": 11, "unit": "%"},
      {"measurement": "Maximal ATPase activity", "setting": "[5]; purified Opti-Pgp, 150 μM verapamil, 1% E. coli lipids, 37° C., n > 30", "result": "2.1 ± 0.28", "unit": "µmol/min/mg"},
      {"measurement": "Maximum turnover number", "setting": "[5]; purified Opti-Pgp, as printed in summary", "result": "2.1 ± 0.28", "unit": "µmol/min/mg"},
      {"measurement": "Mating frequency relative to WT-Pgp controls", "setting": "[6]", "result": "about 1.5 fold"}
    ]},
    {"substance": "WT-Pgp: wild-type mouse MDR3 P-glycoprotein expressed from the native gene, comparison protein", "values": [
      {"measurement": "Unfolding temperature T1", "setting": "[3]; 1% lipid", "result": "50.4 ± 0.9", "unit": "°C"},
      {"measurement": "Unfolding temperature T2", "setting": "[3]; 1% lipid", "result": "57.8 ± 0.1", "unit": "°C"},
      {"measurement": "ΔHcal", "setting": "[3]; 1% lipid", "result": "518 ± 4.2", "unit": "kcal/mol"},
      {"measurement": "Unfolding temperature T1", "setting": "[3]; no added lipids, 0.1% DDM", "result": "43.0 ± 1.6", "unit": "°C"},
      {"measurement": "ΔHcal", "setting": "[3]; no added lipids, 0.1% DDM", "result": "264 ± 87", "unit": "kcal/mol"},
      {"measurement": "Maximal ATPase activity", "setting": "[7]", "result": "1.8 ± 0.24", "unit": "µmol/min/mg"}
    ]}
  ]
}
